Here are results for 1 molecule from patent US20140193431A1 (KOREA RESEARCH INSTITUTE OF BIOSCIENCE AND BIOTECHNOLOGY, published 2014).

The target in test [1] is c-Met (ligand of the SPR analysis, form not stated) (UniProt P08581). As to the kind of experiment: SPR (ProteOn XPR36), B7 at 2.5 to 80 nM as analyte, Langmuir 1:1 fit, grouped.
For test [2], the target named is T1, dog Met receptor on MDCK cells (dog, UniProt Q75ZY9 25-1382).
T1 construct: whole, on cells; also called Met receptor of dog kidney MDCK (Madin-Darby Canine Kidney) cells
T1 sequence (Q75ZY9 25-1382): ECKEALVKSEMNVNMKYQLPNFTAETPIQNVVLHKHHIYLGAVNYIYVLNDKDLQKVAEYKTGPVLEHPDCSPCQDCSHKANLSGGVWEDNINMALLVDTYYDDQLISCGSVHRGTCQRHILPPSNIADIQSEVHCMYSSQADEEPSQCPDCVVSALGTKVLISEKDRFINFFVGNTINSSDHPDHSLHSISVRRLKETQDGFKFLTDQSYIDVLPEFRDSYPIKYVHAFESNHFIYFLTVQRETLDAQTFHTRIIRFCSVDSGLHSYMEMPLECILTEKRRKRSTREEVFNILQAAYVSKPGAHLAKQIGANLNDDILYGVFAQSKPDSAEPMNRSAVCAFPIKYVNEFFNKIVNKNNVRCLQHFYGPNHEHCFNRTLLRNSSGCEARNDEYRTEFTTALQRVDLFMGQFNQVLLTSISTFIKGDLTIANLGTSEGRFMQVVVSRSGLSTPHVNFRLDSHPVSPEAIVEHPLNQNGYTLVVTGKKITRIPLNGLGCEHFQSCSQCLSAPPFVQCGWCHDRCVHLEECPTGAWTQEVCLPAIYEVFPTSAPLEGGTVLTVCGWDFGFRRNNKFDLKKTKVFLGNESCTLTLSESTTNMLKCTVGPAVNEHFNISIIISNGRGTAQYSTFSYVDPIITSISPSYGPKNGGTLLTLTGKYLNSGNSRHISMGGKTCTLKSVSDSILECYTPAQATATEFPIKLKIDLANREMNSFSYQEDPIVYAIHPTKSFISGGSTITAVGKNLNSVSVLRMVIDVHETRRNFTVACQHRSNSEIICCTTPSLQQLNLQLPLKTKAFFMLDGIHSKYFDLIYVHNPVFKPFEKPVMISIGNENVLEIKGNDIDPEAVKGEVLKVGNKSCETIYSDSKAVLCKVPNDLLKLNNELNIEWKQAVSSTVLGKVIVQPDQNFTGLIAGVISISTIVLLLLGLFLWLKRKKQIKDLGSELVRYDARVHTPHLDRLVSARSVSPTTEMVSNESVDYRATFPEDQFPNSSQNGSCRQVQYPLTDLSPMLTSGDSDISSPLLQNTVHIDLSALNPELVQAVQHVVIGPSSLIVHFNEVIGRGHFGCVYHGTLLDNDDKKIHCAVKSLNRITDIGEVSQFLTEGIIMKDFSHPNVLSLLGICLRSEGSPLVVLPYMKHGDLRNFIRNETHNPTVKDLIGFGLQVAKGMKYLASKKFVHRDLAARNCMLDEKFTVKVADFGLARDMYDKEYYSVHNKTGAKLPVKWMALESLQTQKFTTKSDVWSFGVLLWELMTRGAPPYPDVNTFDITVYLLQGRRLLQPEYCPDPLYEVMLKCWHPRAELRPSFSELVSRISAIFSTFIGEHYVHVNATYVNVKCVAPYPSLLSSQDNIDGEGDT
As to the kind of experiment: FACS on MDCK cells, Alexa Fluor 488 anti-human IgG. The protocol:
Each of Hep3B, HeLa, A549 and HepG2, known to readily express the Met receptor, MCF7 cells known to not readily express the Met receptor, and dog kidney MDCK (Madin-Darby Canine Kidney) cells was prepared, washed twice with PBS, detached by treatment with trypsin, washed again with PBS, and then suspended in PBS (PBA buffer) containing 1% BSA protein. Then, the cells were treated with the purified with the purified B7 antibody at 1:100 at 4° C., after which the cells were washed with PBA buffer and precipitated by centrifugation at 1200 rpm for 3 minutes, and the washing and precipitation process was repeated three times. […] The cells were washed in the same manner as described above and subjected to FACS analysis (BD Cantoll Flow Cytometer) (FIG. 6). Herein, human IgG (hIgG) was used as the internal standard. FIG. 6 is a graphic diagram showing the results of FACS analysis performed to examine whether the B7 antibody did bind to Hep3B, HeLa, A549, HepG2, MCF7 and dog kidney MDCK cells.

The target of test [3] is c-Met (ligand of the SPR analysis, form not stated) (UniProt P08581). Briefly: SPR (ProteOn XPR36), B7 antibody flowed at 2.5-80 nM, Langmuir 1:1 model; immobilised protein not named.

B1: B7 antibody (human anti-c-Met antibody, whole IgG) (antibody, V domains shown)
VH: QVQLQEWGAGLLKPSETLSLTCAVSGGSLSGHYWSWVRLPPGKGLEWIGEISHSGNTNYNSSLKSRASISIDTSKNEYSLNLKSVTAVDTAVYYCARFYGDYPSSYGMDVWGQGTTVTVSS
VL: QSALTQPASVSGSPGQSITISCTGTISDIGTYDFVSWYQHKPGKAPKLLIFDVNNRPSGVSSRFSGSKSDNTASLSISGFQAEDEADYYCSSYTDNRGLVLFGGGTKLTVLR
notes: Whole IgG made by cloning the B7 phage variable regions into pNATABH/pNATABL vectors and expressing them in 293E cells; also called human antibody B7; C-Met B7 antibody
As usually defined, the kon is the rate constant with which the complex forms. As a reminder, the Kd is the concentration at which binding is half-saturated. A low value points to tighter binding. B1: in test [1], the kon turned out to be 73000 M⁻¹ s⁻¹. Moreover, the binding result in test [2] is on record as “no binding (tested: 1:100)”. The same molecule showed a Kd in test [3] of 3.3 nM.
